Laboratory results published in article PMC4625211, “Putative Breast Cancer Driver Mutations in TBX3 Cause Impaired Transcriptional Repression”.

Biological target: T1, GST-TBX3(1-342) TBX3dm (human, UniProt O15119 1-342, G129A;R130S)
T1 sequence: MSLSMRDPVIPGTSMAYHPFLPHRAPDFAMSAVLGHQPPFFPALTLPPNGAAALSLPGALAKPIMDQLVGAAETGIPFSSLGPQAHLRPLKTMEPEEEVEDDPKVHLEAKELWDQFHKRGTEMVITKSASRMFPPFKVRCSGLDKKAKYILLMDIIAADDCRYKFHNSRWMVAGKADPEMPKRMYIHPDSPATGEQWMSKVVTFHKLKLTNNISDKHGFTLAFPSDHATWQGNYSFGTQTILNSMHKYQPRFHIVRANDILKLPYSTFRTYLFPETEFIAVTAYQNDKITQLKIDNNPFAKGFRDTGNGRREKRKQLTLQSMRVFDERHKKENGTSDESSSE
Assay: EMSA; 20 mM HEPES (pH not given), 100 mM KCl, 1 mM DTT, 0.25 mM EDTA, 0.01% NP-40, 1 mM MgCl2, 8% glycerol, 100 ug/ml BSA, 1 mg/ml poly(dI-dC), 15 C, 1 h; 6% gel, 1x
Details: protein: recombinant; tags: N-terminal GST (pGEX-2TK); label: 5' digoxigenin; blunt; self-complementary palindrome

B1: palindromic Brachyury/T-box consensus oligonucleotide (24 bp) (dsDNA)
DNA 1: AATTTCACACCTAGGTGTGAAATT
DNA 2: AATTTCACACCTAGGTGTGAAATT
  binding result: no binding
